From WO2009138494A2 (dated 2009) come the findings set out here.

First the molecules themselves.
T1: recombinant murine TLR2/Fc chimera, R&D Systems cat no: 1530-TR (murine, UniProt Q9QUN7 25-587)
T1 construct: Bought Fc chimera, coated on ELISA plates; also called mTLR2/Fc; mTLR2; not shown: Fc part of the chimera
T1 sequence (looked up): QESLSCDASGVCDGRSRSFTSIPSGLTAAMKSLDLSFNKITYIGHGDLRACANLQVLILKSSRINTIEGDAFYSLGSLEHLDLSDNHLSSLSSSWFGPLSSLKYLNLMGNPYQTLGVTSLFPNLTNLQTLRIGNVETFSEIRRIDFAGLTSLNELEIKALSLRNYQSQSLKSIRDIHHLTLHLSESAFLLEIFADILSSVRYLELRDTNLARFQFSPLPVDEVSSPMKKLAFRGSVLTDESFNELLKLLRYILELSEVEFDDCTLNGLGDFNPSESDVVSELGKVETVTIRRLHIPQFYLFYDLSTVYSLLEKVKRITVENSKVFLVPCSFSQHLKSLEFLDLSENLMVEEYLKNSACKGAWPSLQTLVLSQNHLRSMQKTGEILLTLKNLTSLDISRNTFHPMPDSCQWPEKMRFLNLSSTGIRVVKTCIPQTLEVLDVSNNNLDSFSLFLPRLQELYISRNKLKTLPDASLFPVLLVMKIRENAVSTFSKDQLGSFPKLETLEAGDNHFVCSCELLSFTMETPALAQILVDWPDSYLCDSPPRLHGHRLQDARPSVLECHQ

B1: 172-B3 (VHH)
VHH: VQLVKSGGGGLVQAGGSLRLSCAASGRTFSRYVMGWFRQAPGKEREFVAVINRSGGSTDYAASVKGRFTIARDNAKNTVYLEMTSLEPEDTAVYYCAAGEYYTGSSSRYDHWGQGTPVTVSS
notes: not shown: C-terminal c-myc tag and (His)6 tag coded by the vector
B2: 161-F2 (VHH)
VHH: EVQLVESGGGLVQAEGSLRLSCVASGPTFDTYVMGWFRQAPGKEREFVAAINRSGSTDYPDYWDSAKGRFTISRDNAKNTVYLQMTSLRPEDTGVYYCAARKTFYFGTSSYPNDYAYWGQGTQVTVSS
notes: as for B1
B3: 161-C9 (VHH)
VHH: EVQLVESGGGLVQAEGSLRLSCVASGTHVMGWFRQASGKEREFVAAINRSGSTDYPDSADSAKGRFTISRDNAKNTVYLQMTSLKPEDTGVYYCAARKAFYFGTSSYPSDYAYWGQGTQVTVSS
notes: as for B1
B4: 172-C6 (VHH)
VHH: EVQLVESGGGVVQAGGSLSLSCAASGRTLSVYAMGWFRQAPGKEREFVATISVSGVYTYYTDSVKARFTISRDNAKNTVYLQMNSLKPEDTAVYYCAAGSKPTFLGSSYDYWGQGTQVTVSS
notes: as for B1
B5: 161-F4 (VHH)
VHH: EVQLVESGGGLVQPGGSLRLSCAASGSIGSGDAMGWYRQPPGKQRERVATITSGGLTVYTESVKGRFAISRDNAKNTVYLQMNSLKPEDTAVYYCNTVNYRVGWGPGTQVTVSS
notes: as for B1
B6: 172-C9 (VHH)
VHH: EVQLVESGGGLVQAGGSLRLSCAASGRTYSIDSMAWFRQAPGKERQFLGSILWSDDSTNYADSVKGRFTISRDNAKNTMYLQMGSLKPEDTAVYYCRSWDGRQVYWGQGTQVTVSS
notes: as for B1
B7: 172-E5 (VHH)
VHH: EVQLVESGGGLVQTGGSLRLSCAASGSTFSNAVMGWFRQAPGKEREFVARITWNGGSTYYGDSAKGRFTISRDNAKTTAYLLMNSLQPEDTANYFCAARMRPVFYSTSGQESFYDYWGQGTQVTVSS
notes: as for B1
B8: 161-A3 (VHH)
VHH: EVQLVESGGGLVQTGGSLRLSCAASGSTFSKAVMGWFRQAPGKEREFVARITWNGGSTYYGDSAKGRFTISRDIGKTTAYLLMNSLQPEDTANYFCAARMRPVFSSSSVQESFYDYWGQGTQVTVSS
notes: as for B1
B9: 172-F11 (VHH)
VHH: EVQLVESGGGLVQTGGSLRLSCAASGSTFSRAVMGWFRQAPGKEREFVARITWNGGSAYYGDSAKGRFTISRDNAKTTAYLLMNSLQPEDTANYFCAARMRPVSDSSSGQESFYDYWGQGTQVTVSS
notes: as for B1
B10: 172-C1 (VHH)
VHH: EVQLVESGGGLVQAGGSLRLSCAASELAFDFDGYNFAWVRQAPGREREFVSVINRSGGSTDYASSVKGRFTISRDNAKNTVYLQMTSLEPEDTAVYYCAAGPYYTGSSDRYDYWGQGTPVTVSS
notes: as for B1
B11: 172-F7 (VHH)
VHH: EVQLVESGGGLVQAGGSLRLSCAASGRTFSRYVMGWFRQAPGKEREFVAVINWSGGSTDYSTYVKGRFTIFRDNAKNTVFLEMTSLEPEDTAVYYCAAGEYYTGDSSRYDHWGQGTPVTVSS
notes: as for B1
B12: 161-E1 (VHH)
VHH: EVQLVESGGGLAQAGGSLRLSCAASGRTFSRYVMGWFRQAPGKEREFVSVINRSGGSTDYSTYVKGRFTIFRDNAKNTVFLEMTSLEPEDTAVYYCAAGEYYTGDSSRYDHWGQGTPVTVSS
notes: as for B1
B13: 172-A12 (VHH)
VHH: EVQLVESGGGLVQAGGSLRLSCAASGRTFSRYVMSWFRQAPGKEREFVAVINWSGGSTDYSTSVKGRFTIFRDNAKNTVYLETTSLELEDTAVYYCAAGEYYTGASSRYDHWGQGTPVTVSS
notes: as for B1
B14: 172-B7 (VHH)
VHH: EVQLVESGGGLVQAGGSLRLSCAASGRTFSSYVMGWFRQAPGKEREFVSVINRSGGSTDYASSVKGRFTISRDNAKNTVYLEMTSLEPEDTAVYYCAAGEYYTGISSRYDYWGQGTPVTVSS
notes: as for B1
B15: 172-G3 (VHH)
VHH: EVQLVKSGGGLVQAGGSLRLSCAASGRTFSRYIMGWFRQAPGKEREFVAVINRSGGSTDYASSVKGRFTISRDNAKNTVYLEMTSLEPEDTAVYYCAAGEYYTGSSSRYDHWGQGTPVTVSS
notes: as for B1
B16: 172-A1 (VHH)
VHH: EVQLVESGGGLVQAGGSLRLSCTASGRTFSSFVMGWFRQAPGKEREFVAYITLRGGDSPLYADSVKDRFTISRDIAKNLVYLQMNSLKPEDTAVYYCAARYSGGSVYRNDYAYWGQGTQVTVSS
notes: as for B1
B17: 161-H4 (VHH)
VHH: EVQLVESGGGLVQAGGSLRLSCAASGRPDSSYFMGWFRQAPGKEFEFVSRINWIGSNTAYADSVKGRFTISRDNAKNTVYLQMNSLKPEDTAVYFCVATTINSFNSGNYKDPRLWTYWAQGTQVTVSS
notes: as for B1
B18: 161-H1 (VHH)
VHH: EVQLVESGGGLVQAGGSLRLSCAPSRRTFSTYVMGWFRQAPGMEREFVSAISWSSGSTRYADSVKGRFTISRDSVKNTMYLQMNSLKPEDTAVYYCAAGASFGSIFWESAREYNYWGQGTQVTVSS
notes: as for B1
B19: 161-A11 (VHH)
VHH: EVQLVESGGGLVQAEGSLRLSCVASGRTFDTYVMGWFRQAPGKEREFVAAINRSGVTDYPDSATGRFTISRENAKNTVYLQGTSLKPEDTGVYYCAARKAFYYGTSSYPNDYAHWGQGTQVTVSS
notes: as for B1
B20: 172-H4 (VHH)
VHH: EVQLVESGGGLVQAGGSLRLSCAASGRTFDSYAMGWFRQAPGKEREFVAAIGYSGTYDADSVKGRFTISRDNAKKTTVYLQMNNLKPEDTAVYYCAAAGTFSTTVGTTTSHYDYWGQGTQVTVSS
notes: as for B1
B21: 161-E2 (VHH)
VHH: EVQLVESGGGLVQAGGSLRLSCAASGRAFSSYVMGWFRQTPGKEREFVSVINWSGGSTDYSSSVKGRFTISRDNAKNTVYLQMTSLEPEDTAVYYCAAGQYYTGRSDRYDYWGQGTPVTVSS
notes: as for B1
B22: 133-A1 (VHH)
VHH: EVQLVESGGGLVQAGESLRLSCVASGISISTEVMGWYRQAPGKQGESVAIIKTDGSTYYPDSVKGRFAISRDNAKNTVYLAMNSLKLEDTGVYYCIIAGRGRGQGTQVTVSS
notes: as for B1
B23: 107-A7 (VHH)
VHH: EVQLVESGGGLVQAGGSLRLSCVASGRTLSTVNMGWFRQAPGKERDIVARISGSSVSTYYAESVRGRFTISRDNAKNTVYLQMNSLRPEDTGVYYCVADSPGGRSYEYWGQGTQVTVSS
notes: as for B1
B24: 107-G9 (VHH)
VHH: EVQLVESGGGLVQAGGSLRLSCVASGRTLSTVNMGWFRQAPGKERDIVARISPSSVSTYYSESVKGRFTISRDNAKNTVYLQMNSLRPEDTAVYYCVADSPGGRSYEYWGQGTQVTVSS
notes: as for B1
B25: 107-E9 (VHH)
VHH: EVQLVESGGGLVQAGGSLRLSCVASGRTLSSVNMGWFRQAPGKERDIVARISPSSVSTYYAESVKGRFTISRDNAKNTVYLQMNSLRPEDTGVYYCVADSPGGRSYEYWGQGTQVTVSS
notes: as for B1
B26: 107-A9 (VHH)
VHH: EVQLVESGGGLVQAGGSLRLSCVASGRTLSTYNMGWFRQAPGKERDIVARISGSSVSTYYAESVRGRFTISRDNAKNTMYLQMNNLRPEDTAVYYCVADGPGGRSYEYWGQGTQVTVSS
notes: as for B1
B27: 107-C12 (VHH)
VHH: EVQLVESGGGLVQAGGSLRLSCVASGRTLSTVNMGWFRQAPGKERDIVARISGSSISTYYAESVRGRFTISRDNAKNTVYLQMNSLRPEDTAVYYCVADSPGGRSYEYWGQGTQVTVSS
notes: as for B1
B28: 133-H11 (VHH)
VHH: EVQLVESGGGLVQAGGSLRLSCVASGRSLSTVNMGWFRQAPGKERDIVARISGSSISTYYAESVRGRFTISRDNAKNTVYLQMNSLRPEDTAVYYCVADSPGGRSYEFWGQGTQVTVSS
notes: as for B1

T2 sequence (O00206 24-631 limits assumed, chain 1 of 2): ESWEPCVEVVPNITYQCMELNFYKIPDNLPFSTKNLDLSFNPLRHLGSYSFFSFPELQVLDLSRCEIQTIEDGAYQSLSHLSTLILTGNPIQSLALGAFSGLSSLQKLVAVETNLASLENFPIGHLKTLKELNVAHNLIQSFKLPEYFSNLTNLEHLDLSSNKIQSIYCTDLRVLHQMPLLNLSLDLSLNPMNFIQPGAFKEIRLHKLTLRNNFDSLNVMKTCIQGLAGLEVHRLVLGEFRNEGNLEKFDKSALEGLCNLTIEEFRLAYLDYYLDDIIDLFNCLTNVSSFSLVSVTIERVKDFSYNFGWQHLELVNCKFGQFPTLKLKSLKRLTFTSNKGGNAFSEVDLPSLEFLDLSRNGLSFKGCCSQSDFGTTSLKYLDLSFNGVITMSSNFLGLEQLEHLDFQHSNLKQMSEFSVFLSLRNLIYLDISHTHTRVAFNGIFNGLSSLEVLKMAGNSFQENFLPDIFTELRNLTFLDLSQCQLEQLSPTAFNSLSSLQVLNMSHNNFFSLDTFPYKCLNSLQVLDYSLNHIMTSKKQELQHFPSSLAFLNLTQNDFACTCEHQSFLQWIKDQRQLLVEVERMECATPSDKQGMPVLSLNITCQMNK
T2 sequence (Q9Y6Y9 17-160 limits assumed, chain 2 of 2): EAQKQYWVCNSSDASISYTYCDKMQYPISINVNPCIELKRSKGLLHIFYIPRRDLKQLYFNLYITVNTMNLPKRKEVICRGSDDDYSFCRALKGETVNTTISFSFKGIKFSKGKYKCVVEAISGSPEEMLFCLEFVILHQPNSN

The target of the first experiment is T1, recombinant murine TLR2/Fc chimera, R&D …. Briefly: ELISA: TLR coated at 2 ug/ml, periplasmic extract of the clone, anti-VHH detection, OD against no-Nanobody control. Background: In an ELISA, binding on a coated surface is turned into a signal by an enzyme label.
In the case of B1, the binding result was “binds”. For the molecule B2, the binding result is “binds”. With B3, the binding result is on record as “binds”. On the same count and under the same terms, in the case of B4 it was “binds”. B5: the binding result is “binds”. Regarding B6, the binding result is recorded as “binds”. For B7, the binding result is “binds”.

On to B8, for which the binding result is given as “binds”. For B9, the binding result is “binds”. Same read-out and setting: in the case of B10 it was “binds”; in that of B11, “binds”; in that of B12, “binds”. With B13, the binding result was “binds”. As to B14, the binding result is given as “binds”.

Regarding B15, the binding result is recorded as “binds”. B16: the binding result is given as “binds”.

As for B17, the binding result is reported as “binds”. Turning to B18, the binding result is recorded as “binds”. On to B19, for which the binding result is listed as “binds”.

As to B20, the binding result is recorded as “binds”. For the molecule B21, the binding result is given as “binds”.

The next experiment concerns the target T2, recombinant human TLR4/MD2 (rhTLR4/MD2), R&D Systems cat no: 3146-TM/CF (human, UniProt O00206 24-631; Q9Y6Y9 17-160, limits assumed).
T2 construct: Bought protein, coated on ELISA plates
The experiment is described as above.
In the case of B22, the binding result is listed as “binds”. The same measure, in the same setting: in the case of B23 it was “binds”. As to B24, the binding result is on record as “binds”. The same measure, in the same setting: in the case of B25 it was “binds”. In the case of B26, the binding result is reported as “binds”. Regarding B27, the binding result is recorded as “binds”. On the same count and under the same terms, in the case of B28 it was “binds”.
